The values below come from publication PMC9741652, “CRL2^ZER1/ZYG11B recognizes small N-terminal residues for degradation” (Nature Communications, 2022).

For assay [1], the target named is T1, GST-fused ZER1 (residues 469–766) (human, UniProt Q7Z7L7 469-766).
T1 construct: ZER1, human, residues 469-766; Vector pACYC-GST is Addgene Plasmid #62329; also called GST-tagged ZER1_(469–766); source: purified; cloned into pACYC-GST
Nature of the assay: peptide or protein array; peptide SPOT array on cellulose membrane; purified GST-tagged ZER1 (50 nM) or ZYG11B (230 nM) in 10% glycerol, 0.1 M KCl, 1 mM EDTA, 20 mM HEPES pH 7.5, 1 h at room temperature; detected with anti-GST by chemiluminescence. Conditions: both partners purified.

The target in assay [2] is T2, GST-fused ZYG11B (residues 490–744) (UniProt Q9C0D3 490-744).
T2 construct: ZYG11B, residues 490-744; Vector pACYC-GST is Addgene Plasmid #62329; also called GST-tagged ZYG11B_(490–744); source: purified; cloned into pACYC-GST
T2 sequence (Q9C0D3 490-744): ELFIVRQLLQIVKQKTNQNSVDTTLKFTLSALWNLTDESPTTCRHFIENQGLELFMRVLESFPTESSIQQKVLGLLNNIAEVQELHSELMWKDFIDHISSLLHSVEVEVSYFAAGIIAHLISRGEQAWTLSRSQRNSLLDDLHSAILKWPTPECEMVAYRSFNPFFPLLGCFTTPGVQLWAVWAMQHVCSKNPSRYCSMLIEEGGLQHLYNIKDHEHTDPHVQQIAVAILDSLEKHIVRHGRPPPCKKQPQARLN
The assay is described as above. The note with it: both partners purified.

T1 sequence (Q7Z7L7 469-766): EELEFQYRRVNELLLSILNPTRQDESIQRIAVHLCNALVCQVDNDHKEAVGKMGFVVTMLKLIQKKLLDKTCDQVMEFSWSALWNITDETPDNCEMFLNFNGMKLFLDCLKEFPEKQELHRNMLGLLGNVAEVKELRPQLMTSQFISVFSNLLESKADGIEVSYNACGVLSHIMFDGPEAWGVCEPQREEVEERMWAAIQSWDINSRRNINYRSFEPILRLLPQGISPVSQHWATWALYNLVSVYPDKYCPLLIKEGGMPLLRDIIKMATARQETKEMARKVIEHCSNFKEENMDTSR

B1: TFLHVGQDGLELPTS peptide (15-mer, position 1 Thr) (peptide)
peptide: TFLHVGQDGLELPTS
notes: numbers count on: the peptide; Spot on a cellulose membrane; also called Nt-Thr (SPOT array); source: synthetic peptide, synthesized on cellulose membrane (SPOT array)
Turning to B1, in assay [1], the binding result is given as “binds”.

B2: SFLHVGQDGLELPTS peptide (15-mer, position 1 Ser) (peptide)
peptide: SFLHVGQDGLELPTS
notes: numbers count on: the peptide; Spot on a cellulose membrane; also called Nt-Ser (SPOT array); source: synthetic peptide, synthesized on cellulose membrane (SPOT array)
With B2, the binding result in assay [2] and in assay [1] was “binds” in each case.

B3: GFLHVGQDGLELPTS peptide (15-mer from the N-terminus of ZNF701) (peptide)
peptide: GFLHVGQDGLELPTS
notes: 15-mer derived from the N-terminus of ZNF701; Spot on a cellulose membrane; also called Nt-Gly (SPOT array); source: synthetic peptide, synthesized on cellulose membrane (SPOT array)
Take B3: in assay [2], the binding result is reported as “binds”.

B4: AFLHVGQDGLELPTS peptide (15-mer, position 1 Ala) (peptide)
peptide: AFLHVGQDGLELPTS
notes: numbers count on: the peptide; Spot on a cellulose membrane; also called Nt-Ala (SPOT array); source: synthetic peptide, synthesized on cellulose membrane (SPOT array)
For the molecule B4, the binding result in assay [2] and in assay [1] was “binds” each time.
